In patent US20090325262A1, “Immobilization of biological molecules onto surfaces coated with monolayers” (SURFACE LOGIX, INC., priority 2001, published 2009):

Tests used:
[1] = system: CCCC(=O)Oc1ccc([N+](=O)[O-])cc1; assay: purified protein, by the assay type; details: other: substrate of recombinant cutinase; release of PNP followed by absorbance
Description: The cutinase concentration was 1 M. The release of PNP was followed using absorbance spectroscopy.
Spectrophotometric measurement was performed at room temperature using BECKMAN DU-640 spectrophotometer (BECKMAN COULTER, INC., Fullerton, Calif.). Esterase activity of purified recombinant cutinase was measured by monitoring p-nitrophenol butyrate (PNB) hydrolysis rates at 410 nm (=8,800 M-1 cm-1) in buffer A.

[2] = biological target: biotin-NH-Arg-Asp-Cys-CONH2; assay: SPR, fibrinogen (0.5 mg/mL) flowed over 2% maleimide SAM treated with the peptide; FIG. 4
[3] = biological target: biotin-NH-Arg-Asp-Cys-CONH2; assay: SPR (Biacore 3000), streptavidin flowed over 2% maleimide SAM treated with the peptide (1.2 mM, 12 min); FIG. 3 sensorgram A

cutinase (Fusarium vanettenii)
Km [1]: 1000 µM

fibrinogen
SPR response (RU) [2]: 60 RU

streptavidin (from UniProt P22629 37-163)
SPR response (RU) [3]: 2280 RU
